Data published in patent US20260125454A1 (SHANGHAI JUNSHI BIOSCIENCES, published 2026).

T1: Biotin-huCGRPaSA (human, not fully specified; biotin (position not given))
T1 construct: exact construct ('aSA') not explained; also called Biotin CGRPaSA; full-length (1-37) CGRP
T1 peptide: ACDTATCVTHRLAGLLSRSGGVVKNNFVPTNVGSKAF


Target: T1, Biotin-huCGRPaSA
Assay: ELISA, supernatant; relative to chimeric C245
Description: Biotin CGRPaSA was diluted with PBS (Hyclone) to 1.0 μg/mL, and the dilution was added to a microplate at 100 μL/well. The plate was let stand in an incubator at 37° C. and coated for 90 min and then washed, and 2% BSA was added to the plate at 200 μL/well. The plate was incubated in an incubator at 37° C. for 90 min and then washed. The humanized antibodies in Table 8 and the reference antibody (chimeric antibody C245) were diluted to 1000 ng/mL with a diluent (2% BSA) with a dilution factor of not more than 10. Then, the chimeric antibodies and the reference antibody were serially 2.5-fold diluted on a sample dilution plate. All the chimeric antibody solutions and the reference antibody solution were added into plates at 100 μL/well, and the plates were incubated in a thermostat incubator at 37° C. for 60 min and washed. An HRP-conjugated goat anti-human antibody IgG (manufacturer: Sigma, Cat. No. A0170; Fc specificity) was diluted 5000-fold with 2% BSA and added into the plates at 100 μL/well, and the plates were incubated in the thermostat incubator at 37° C. for 60 min and washed. Chromogenic reagent TMB was carefully added at 100 μL/well to avoid bubbles, and the system was incubated at 37° C. for 15 min away from light for chromogenic reaction. Finally, a 2 M hydrochloric acid solution was added at 100 μL/well to stop the reaction while avoiding bubbles, and the plates were read on a microplate reader within 10 min (wavelength: 450/620 nm).

Binder	Relative binding activity, %
hu210 (antibody, V domains shown, 3H10 HC-2/1A2 LC2-2) VH: QVQLVQSGAEVKKPGASVKVSCKASGYTFTDYNMHWVRQAPGQGLEWMGYIYPYNGHTVYNQKFRNRVTLTVDTSSSTAYMELRSLRSDDTAVYYCAREGLGGYWGQGTLVTVSS VL: DIVLTQSPASLAVSPGQRATITCKASQNIDYDGYAYLNWYQQKPGQPPKVLIYSVFNLESGVPARFSGSGSGTDFTLTINPVEADDTANYYCQQSNEFPYTFGQGTKLEIK	73%
hu14 (antibody, V domains shown, 1B2 HC-2/1A2 LC2-1) VH: QVQLVQSGAEVKKPGASVKVSCKASGYTFTDYNMHWVRQAPGQRLEWMGYIFPYNGVAVYNRKFRSRVTLTVDTSSSTAYMELSSLRSEDTAVYYCAREGLGGYWGQGTLVTVSS VL: DIVLTQSPASLAVSPGQRATITCKASQNIDYDGYAYLNWYQQKPGQPPKVLIYSVFNLESGVPARFSGSGSGTDFTLTINPVEANDTANYYCQQSNEFPYTFGQGTKLEIK	32%
hu53 (antibody, V domains shown, 1F5 HC-3/1A2 LC2-1) VH: QVQLVQSGAEVKKPGASVKVSCKASGYTFTDFNMHWVRQAPGQGLEWMGYIYPYNGDVVYNQNFTNRVTLTVDTSSSTAYMELRSLRSDDTAVYYCAREGLGGYWGQGTLVTVSS VL: DIVLTQSPASLAVSPGQRATITCKASQNIDYDGYAYLNWYQQKPGQPPKVLIYSVFNLESGVPARFSGSGSGTDFTLTINPVEANDTANYYCQQSNEFPYTFGQGTKLEIK	13%
hu1 (antibody, V domains shown, 1B2 HC-1/1A2 LC2-1) VH: QVQLVQSGAEVKKPGASVKVSCKASGYTFTDYNMHWVRQAPGQGLEWMGYIFPYNGVAVYNRKFRSRVTLTIDTSSSTAYMELRSLRSDDTAVYYCAREGLGGYWGQGTLVTVSS VL: DIVLTQSPASLAVSPGQRATITCKASQNIDYDGYAYLNWYQQKPGQPPKVLIYSVFNLESGVPARFSGSGSGTDFTLTINPVEANDTANYYCQQSNEFPYTFGQGTKLEIK	58%
hu40 (antibody, V domains shown, 1F5 HC-2/1A2 LC2-1) VH: QVQLVQSGAEVKKPGASVKVSCKASGYTFTDFNMHWVRQAPGQRLEWMGYIYPYNGDVVYNQNFTNRVTLTVDTSSSTAYMELSSLRSEDTAVYYCAREGLGGYWGQGTLVTVSS VL: DIVLTQSPASLAVSPGQRATITCKASQNIDYDGYAYLNWYQQKPGQPPKVLIYSVFNLESGVPARFSGSGSGTDFTLTINPVEANDTANYYCQQSNEFPYTFGQGTKLEIK	49%
hu15 (antibody, V domains shown, 1B2 HC-2/1A2 LC2-2) VH: QVQLVQSGAEVKKPGASVKVSCKASGYTFTDYNMHWVRQAPGQRLEWMGYIFPYNGVAVYNRKFRSRVTLTVDTSSSTAYMELSSLRSEDTAVYYCAREGLGGYWGQGTLVTVSS VL: DIVLTQSPASLAVSPGQRATITCKASQNIDYDGYAYLNWYQQKPGQPPKVLIYSVFNLESGVPARFSGSGSGTDFTLTINPVEADDTANYYCQQSNEFPYTFGQGTKLEIK	44%
hu27 (antibody, V domains shown, 1F5 HC-1/1A2 LC2-1) VH: QVQLVQSGAEVKKPGASVKVSCKASGYTFIDFNMHWVRQAPGQRLEWMGYIYPYNGDVVYNQNFTNRVTLTVDTSSSTAYMELSSLRSEDTAVYYCAREGLGGYWGQGTLVTVSS VL: DIVLTQSPASLAVSPGQRATITCKASQNIDYDGYAYLNWYQQKPGQPPKVLIYSVFNLESGVPARFSGSGSGTDFTLTINPVEANDTANYYCQQSNEFPYTFGQGTKLEIK	28%
hu54 (antibody, V domains shown, 1F5 HC-3/1A2 LC2-2) VH: QVQLVQSGAEVKKPGASVKVSCKASGYTFTDFNMHWVRQAPGQGLEWMGYIYPYNGDVVYNQNFTNRVTLTVDTSSSTAYMELRSLRSDDTAVYYCAREGLGGYWGQGTLVTVSS VL: DIVLTQSPASLAVSPGQRATITCKASQNIDYDGYAYLNWYQQKPGQPPKVLIYSVFNLESGVPARFSGSGSGTDFTLTINPVEADDTANYYCQQSNEFPYTFGQGTKLEIK	22%
hu80 (antibody, V domains shown, 1F5 HC-5/1A2 LC2-2) VH: QVQLVQSGAEVKKPGASVKVSCKASGYTFIDFNMHWVRQAPGQRLEWMGYIYPYNADVVYNQDFTNRVTLTVDTSSSTAYMELSSLRSEDTAVYYCAREGLGGYWGQGTLVTVSS VL: DIVLTQSPASLAVSPGQRATITCKASQNIDYDGYAYLNWYQQKPGQPPKVLIYSVFNLESGVPARFSGSGSGTDFTLTINPVEADDTANYYCQQSNEFPYTFGQGTKLEIK	99%
hu92 (antibody, V domains shown, 2A2 HC-1/1A2 LC2-1) VH: QVQLVQSGAEVKKPGASVKVSCKASGYTFTDYNMHWVRQAPGQRLEWMGYVYPYNGGSAYNQKFKSRVTLTVDTSSSTAYMELSSLRSEDTAVYYCAREGLGGYWGQGTLVTVSS VL: DIVLTQSPASLAVSPGQRATITCKASQNIDYDGYAYLNWYQQKPGQPPKVLIYSVFNLESGVPARFSGSGSGTDFTLTINPVEANDTANYYCQQSNEFPYTFGQGTKLEIK	32%
hu7 (antibody, V domains shown, 1B2 HC-1/1F5 LC1-3) VH: QVQLVQSGAEVKKPGASVKVSCKASGYTFTDYNMHWVRQAPGQGLEWMGYIFPYNGVAVYNRKFRSRVTLTIDTSSSTAYMELRSLRSDDTAVYYCAREGLGGYWGQGTLVTVSS VL: DIVLTQSPASLAVSPGQRATITCKASQNIDFDGYAYMNWYQQKPGQPPKVLIYSVFNLESGVPARFSGSGSGTDFTLTINPVEADDTANYYCQQSHEVPYTFGQGTKLEIK	80%
hu20 (antibody, V domains shown, 1B2 HC-2/1F5 LC1-3) VH: QVQLVQSGAEVKKPGASVKVSCKASGYTFTDYNMHWVRQAPGQRLEWMGYIFPYNGVAVYNRKFRSRVTLTVDTSSSTAYMELSSLRSEDTAVYYCAREGLGGYWGQGTLVTVSS VL: DIVLTQSPASLAVSPGQRATITCKASQNIDFDGYAYMNWYQQKPGQPPKVLIYSVFNLESGVPARFSGSGSGTDFTLTINPVEADDTANYYCQQSHEVPYTFGQGTKLEIK	40%
hu28 (antibody, V domains shown, 1F5 HC-1/1A2 LC2-2) VH: QVQLVQSGAEVKKPGASVKVSCKASGYTFIDFNMHWVRQAPGQRLEWMGYIYPYNGDVVYNQNFTNRVTLTVDTSSSTAYMELSSLRSEDTAVYYCAREGLGGYWGQGTLVTVSS VL: DIVLTQSPASLAVSPGQRATITCKASQNIDYDGYAYLNWYQQKPGQPPKVLIYSVFNLESGVPARFSGSGSGTDFTLTINPVEADDTANYYCQQSNEFPYTFGQGTKLEIK	71%
hu93 (antibody, V domains shown, 2A2 HC-1/1A2 LC2-2) VH: QVQLVQSGAEVKKPGASVKVSCKASGYTFTDYNMHWVRQAPGQRLEWMGYVYPYNGGSAYNQKFKSRVTLTVDTSSSTAYMELSSLRSEDTAVYYCAREGLGGYWGQGTLVTVSS VL: DIVLTQSPASLAVSPGQRATITCKASQNIDYDGYAYLNWYQQKPGQPPKVLIYSVFNLESGVPARFSGSGSGTDFTLTINPVEADDTANYYCQQSNEFPYTFGQGTKLEIK	45%
hu59 (antibody, V domains shown, 1F5 HC-3/1F5 LC1-3) VH: QVQLVQSGAEVKKPGASVKVSCKASGYTFTDFNMHWVRQAPGQGLEWMGYIYPYNGDVVYNQNFTNRVTLTVDTSSSTAYMELRSLRSDDTAVYYCAREGLGGYWGQGTLVTVSS VL: DIVLTQSPASLAVSPGQRATITCKASQNIDFDGYAYMNWYQQKPGQPPKVLIYSVFNLESGVPARFSGSGSGTDFTLTINPVEADDTANYYCQQSHEVPYTFGQGTKLEIK	70%
hu2 (antibody, V domains shown, 1B2 HC-1/1A2 LC2-2) VH: QVQLVQSGAEVKKPGASVKVSCKASGYTFTDYNMHWVRQAPGQGLEWMGYIFPYNGVAVYNRKFRSRVTLTIDTSSSTAYMELRSLRSDDTAVYYCAREGLGGYWGQGTLVTVSS VL: DIVLTQSPASLAVSPGQRATITCKASQNIDYDGYAYLNWYQQKPGQPPKVLIYSVFNLESGVPARFSGSGSGTDFTLTINPVEADDTANYYCQQSNEFPYTFGQGTKLEIK	64%
hu46 (antibody, V domains shown, 1F5 HC-2/1F5 LC1-3) VH: QVQLVQSGAEVKKPGASVKVSCKASGYTFTDFNMHWVRQAPGQRLEWMGYIYPYNGDVVYNQNFTNRVTLTVDTSSSTAYMELSSLRSEDTAVYYCAREGLGGYWGQGTLVTVSS VL: DIVLTQSPASLAVSPGQRATITCKASQNIDFDGYAYMNWYQQKPGQPPKVLIYSVFNLESGVPARFSGSGSGTDFTLTINPVEADDTANYYCQQSHEVPYTFGQGTKLEIK	25%
hu79 (antibody, V domains shown, 1F5 HC-5/1A2 LC2-1) VH: QVQLVQSGAEVKKPGASVKVSCKASGYTFIDFNMHWVRQAPGQRLEWMGYIYPYNADVVYNQDFTNRVTLTVDTSSSTAYMELSSLRSEDTAVYYCAREGLGGYWGQGTLVTVSS VL: DIVLTQSPASLAVSPGQRATITCKASQNIDYDGYAYLNWYQQKPGQPPKVLIYSVFNLESGVPARFSGSGSGTDFTLTINPVEANDTANYYCQQSNEFPYTFGQGTKLEIK	80%
hu41 (antibody, V domains shown, 1F5 HC-2/1A2 LC2-2) VH: QVQLVQSGAEVKKPGASVKVSCKASGYTFTDFNMHWVRQAPGQRLEWMGYIYPYNGDVVYNQNFTNRVTLTVDTSSSTAYMELSSLRSEDTAVYYCAREGLGGYWGQGTLVTVSS VL: DIVLTQSPASLAVSPGQRATITCKASQNIDYDGYAYLNWYQQKPGQPPKVLIYSVFNLESGVPARFSGSGSGTDFTLTINPVEADDTANYYCQQSNEFPYTFGQGTKLEIK	61%
